In publication PMC10632352, “Nde1 promotes Lis1-mediated activation of dynein” (Nature Communications, 2023):
Positions count from the first letter of the chain named. Names may count otherwise.

B1: human Lis1 (natural protein, UniProt P43034 1-410, looked up)
chain: MVLSQRQRDELNRAIADYLRSNGYEEAYSVFKKEAELDVNEELDKKYAGLLEKKWTSVIRLQKKVMELESKLNEAKEEFTSGGPLGQKRDPKEWIPRPPEKYALSGHRSPVTRVIFHPVFSVMVSASEDATIKVWDYETGDFERTLKGHTDSVQDISFDHSGKLLASCSADMTIKLWDFQGFECIRTMHGHDHNVSSVAIMPNGDHIVSASRDKTIKMWEVQTGYCVKTFTGHREWVRMVRPNQDGTLIASCSNDQTVRVWVVATKECKAELREHEHVVECISWAPESSYSSISEATGSETKKSGKPGPFLLSGSRDKTIKMWDVSTGMCLMTLVGHDNWVRGVLFHSGGKFILSCADDKTLRVWDYKNKRCMKTLNAHEHFVTSLDFHKTAPYVVTGSVDQTVKVWECR
modifications: benzylguanine dyes on the SNAP tag, by experiment: LD555, LD655, or Alexa488 and biotin
notes: Lis1 (noncatalytic beta subunit of PAF-AH1B), human; Homodimer by mass photometry; also called full-length Lis1; SNAP-Lis1; source: Sf9 (baculovirus, pOmniBac), purified (IgG Sepharose, TEV elution, Superdex 200 Increase SEC)
B2: mtLis1 (dynein-binding mutant of Lis1, R316A and W340A) (natural protein, human, UniProt P43034 1-410, looked up)
chain: B1 chain with R316A, W340A
modifications: LD555, or Alexa488 and biotin, on the SNAP tag in the colocalization assays
notes: Lis1, human, with R316A and W340A on the beta-propeller domain; forms a dimer like Lis1; source: Sf9 (baculovirus, pOmniBac), purified (IgG Sepharose, TEV elution, SEC)
B3: Nde1^E118A/R129A (Lis1 binding mutant of Nde1), Q9NXR1 1-335 (natural protein)
chain: MEDSGKTFSSEEEEANYWKDLAMTYKQRAENTQEELREFQEGSREYEAELETQLQQIETRNRDLLSENNRLRMELETIKEKFEVQHSEGYRQISALEDDLAQTKAIKDQLQKYIRELAQANDDLERAKAATIMSLEDFEQRLNQAIERNAFLESELDEKENLLESVQRLKDEARDLRQELAVQQKQEKPRTPMPSSVEAERTDTAVQATGSVPSTPIAHRGPSSSLNTPGSFRRGLDDSTGGTPLTPAARISALNIVGDLLRKVGALESKLASCRNLVYDQSPNRTGGPASGRSSKNRDGGERRPSSTSVPLGDKGLDTSCRWLSKSTTRSSSSC
modifications: here or on the partner: a fluorescent dye in the colocalization assays; LD655, or Alexa488 and biotin, where labelled
B4: human Nde1 (natural protein, UniProt Q9NXR1 1-335, looked up)
chain: B3 chain with A118E, A129R
modifications: LD655 or LD555 dye where labelled
notes: Nde1, human; Labelled through a SNAP or a ybbR tag; also called full-length Nde1; WT Nde1; source: Sf9 (baculovirus, pOmniBac), purified (IgG Sepharose, TEV elution, Superdex 200 Increase SEC)
B5: Nde1^E118K/R129E (Lis1 binding mutant of Nde1), Q9NXR1 1-335 (natural protein)
chain: B3 chain with A118K, A129E
modifications: here or on the partner: a fluorescent dye in the colocalization assays; LD655, or Alexa488 and biotin, where labelled
B6: Nde1^E118A/R129A (Lis1 binding mutant of Nde1) (natural protein, human, UniProt Q9NXR1 1-335, looked up)
chain: B3 chain
modifications: a fluorescent dye in the colocalization assays
notes: Nde1, human, with E118A and R129A; Probably in full-length Nde1; source: Sf9 (baculovirus, pOmniBac), purified (IgG Sepharose, TEV elution, SEC)
B7: Nde1^E118K/R129E (Lis1 binding mutant of Nde1) (natural protein, human, UniProt Q9NXR1 1-335, looked up)
chain: B3 chain with A118K, A129E
modifications: a fluorescent dye in the colocalization assays
notes: Nde1, human, with E118K and R129E; Probably in full-length Nde1; source: Sf9 (baculovirus, pOmniBac), purified (IgG Sepharose, TEV elution, SEC)
B8: Nde1^E47K (DIC binding mutant of Nde1) (natural protein, human, UniProt Q9NXR1 1-335, looked up)
chain: B3 chain with E47K, A118E, A129R
modifications: a fluorescent dye in the colocalization assays
notes: Nde1, human, with E47K; Probably in full-length Nde1; source: Sf9 (baculovirus, pOmniBac), purified (IgG Sepharose, TEV elution, SEC)
B9: Nde1^E47A (DIC binding mutant of Nde1) (natural protein, human, UniProt Q9NXR1 1-335, looked up)
chain: B3 chain with E47A, A118E, A129R
modifications: a fluorescent dye in the colocalization assays
notes: Nde1, human, with E47A; Probably in full-length Nde1; source: Sf9 (baculovirus, pOmniBac), purified (IgG Sepharose, TEV elution, SEC)
B10: Nde1^1–190 (N-terminus of human Nde1) (domain or fragment, UniProt Q9NXR1 1-190, looked up)
chain: MEDSGKTFSSEEEEANYWKDLAMTYKQRAENTQEELREFQEGSREYEAELETQLQQIETRNRDLLSENNRLRMELETIKEKFEVQHSEGYRQISALEDDLAQTKAIKDQLQKYIRELEQANDDLERAKRATIMSLEDFEQRLNQAIERNAFLESELDEKENLLESVQRLKDEARDLRQELAVQQKQEKPR
modifications: LD555 dye in the analytical SEC
notes: Nde1, human, N-terminal coiled-coil, residues 1-190 (C-terminus truncated); also called Nde1^1–190-LD555; source: Sf9 (baculovirus, pOmniBac), purified (IgG Sepharose, TEV elution, Superdex 200 Increase SEC)

Experiments:
[1] = biological target: dynein mutant unable to attain the phi conformation (mtDyn) (human) (UniProt Q14204); assay: single-molecule colocalization (TIRF); dynein (Alexa488 and biotin on its SNAP tag, 0.2 nM) immobilised on streptavidin / biotin-PEG glass; labelled prey in MB buffer (30 mM HEPES pH 7.0, 5 mM MgSO4, 1 mM EGTA, casein, pluronic, DTT, Taxol), 10 min, unbound prey not washed away; third proteins added
[2] = biological target: wild-type human dynein (cytoplasmic dynein-1 complex) (human) (UniProt Q14204); assay: as above
WT dynein-GFP (human) = WT dynein-GFP (human) (UniProt Q14204); assay: real-time TIRF of the initiation of DDR motility; microtubules decorated with WT dynein-GFP and Nde1-LD655 in the absence of Lis1; dynactin and BicDR1 (one of them LD555-labelled) flown in during imaging
[3] = biological target: wild-type human dynein (cytoplasmic dynein-1 complex) (human) (UniProt Q14204); assay: single-molecule colocalization (TIRF); dynein (Alexa488 and biotin on its SNAP tag, 0.2 nM) immobilised on streptavidin / biotin-PEG glass; labelled prey in MB buffer (30 mM HEPES pH 7.0, 5 mM MgSO4, 1 mM EGTA, casein, pluronic, DTT, Taxol), 10 min, unbound prey not washed away; third proteins added; remark: listed apart in the source
[4] = biological target: the molecule itself; assay: mass photometry; proteins diluted to 5–20 nM in 30 mM HEPES pH 7.4, 5 mM MgSO4, 1 mM EGTA, 10% glycerol; Refeyn TwoMP; profiles fitted to multiple Gaussians
[5] = biological target: dynein-dynactin-BicDR1 complex assembled with wild-type human dynein (wtDDR) (human | pig | mouse) (UniProt Q14204); assay: three-color TIRF comigration on microtubules; 100 nM BicDR1-mNG, 10 nM LD555-Lis1 and 10 nM LD655-Nde1 preincubated with the DDR components; processive runs on surface-immobilised microtubules
Sequence of dynein-dynactin-BicDR1 complex assembled with wild-type human dynein (wtDDR) (human | pig | mouse) (Q14204 whole entry, looked up, one chain of several): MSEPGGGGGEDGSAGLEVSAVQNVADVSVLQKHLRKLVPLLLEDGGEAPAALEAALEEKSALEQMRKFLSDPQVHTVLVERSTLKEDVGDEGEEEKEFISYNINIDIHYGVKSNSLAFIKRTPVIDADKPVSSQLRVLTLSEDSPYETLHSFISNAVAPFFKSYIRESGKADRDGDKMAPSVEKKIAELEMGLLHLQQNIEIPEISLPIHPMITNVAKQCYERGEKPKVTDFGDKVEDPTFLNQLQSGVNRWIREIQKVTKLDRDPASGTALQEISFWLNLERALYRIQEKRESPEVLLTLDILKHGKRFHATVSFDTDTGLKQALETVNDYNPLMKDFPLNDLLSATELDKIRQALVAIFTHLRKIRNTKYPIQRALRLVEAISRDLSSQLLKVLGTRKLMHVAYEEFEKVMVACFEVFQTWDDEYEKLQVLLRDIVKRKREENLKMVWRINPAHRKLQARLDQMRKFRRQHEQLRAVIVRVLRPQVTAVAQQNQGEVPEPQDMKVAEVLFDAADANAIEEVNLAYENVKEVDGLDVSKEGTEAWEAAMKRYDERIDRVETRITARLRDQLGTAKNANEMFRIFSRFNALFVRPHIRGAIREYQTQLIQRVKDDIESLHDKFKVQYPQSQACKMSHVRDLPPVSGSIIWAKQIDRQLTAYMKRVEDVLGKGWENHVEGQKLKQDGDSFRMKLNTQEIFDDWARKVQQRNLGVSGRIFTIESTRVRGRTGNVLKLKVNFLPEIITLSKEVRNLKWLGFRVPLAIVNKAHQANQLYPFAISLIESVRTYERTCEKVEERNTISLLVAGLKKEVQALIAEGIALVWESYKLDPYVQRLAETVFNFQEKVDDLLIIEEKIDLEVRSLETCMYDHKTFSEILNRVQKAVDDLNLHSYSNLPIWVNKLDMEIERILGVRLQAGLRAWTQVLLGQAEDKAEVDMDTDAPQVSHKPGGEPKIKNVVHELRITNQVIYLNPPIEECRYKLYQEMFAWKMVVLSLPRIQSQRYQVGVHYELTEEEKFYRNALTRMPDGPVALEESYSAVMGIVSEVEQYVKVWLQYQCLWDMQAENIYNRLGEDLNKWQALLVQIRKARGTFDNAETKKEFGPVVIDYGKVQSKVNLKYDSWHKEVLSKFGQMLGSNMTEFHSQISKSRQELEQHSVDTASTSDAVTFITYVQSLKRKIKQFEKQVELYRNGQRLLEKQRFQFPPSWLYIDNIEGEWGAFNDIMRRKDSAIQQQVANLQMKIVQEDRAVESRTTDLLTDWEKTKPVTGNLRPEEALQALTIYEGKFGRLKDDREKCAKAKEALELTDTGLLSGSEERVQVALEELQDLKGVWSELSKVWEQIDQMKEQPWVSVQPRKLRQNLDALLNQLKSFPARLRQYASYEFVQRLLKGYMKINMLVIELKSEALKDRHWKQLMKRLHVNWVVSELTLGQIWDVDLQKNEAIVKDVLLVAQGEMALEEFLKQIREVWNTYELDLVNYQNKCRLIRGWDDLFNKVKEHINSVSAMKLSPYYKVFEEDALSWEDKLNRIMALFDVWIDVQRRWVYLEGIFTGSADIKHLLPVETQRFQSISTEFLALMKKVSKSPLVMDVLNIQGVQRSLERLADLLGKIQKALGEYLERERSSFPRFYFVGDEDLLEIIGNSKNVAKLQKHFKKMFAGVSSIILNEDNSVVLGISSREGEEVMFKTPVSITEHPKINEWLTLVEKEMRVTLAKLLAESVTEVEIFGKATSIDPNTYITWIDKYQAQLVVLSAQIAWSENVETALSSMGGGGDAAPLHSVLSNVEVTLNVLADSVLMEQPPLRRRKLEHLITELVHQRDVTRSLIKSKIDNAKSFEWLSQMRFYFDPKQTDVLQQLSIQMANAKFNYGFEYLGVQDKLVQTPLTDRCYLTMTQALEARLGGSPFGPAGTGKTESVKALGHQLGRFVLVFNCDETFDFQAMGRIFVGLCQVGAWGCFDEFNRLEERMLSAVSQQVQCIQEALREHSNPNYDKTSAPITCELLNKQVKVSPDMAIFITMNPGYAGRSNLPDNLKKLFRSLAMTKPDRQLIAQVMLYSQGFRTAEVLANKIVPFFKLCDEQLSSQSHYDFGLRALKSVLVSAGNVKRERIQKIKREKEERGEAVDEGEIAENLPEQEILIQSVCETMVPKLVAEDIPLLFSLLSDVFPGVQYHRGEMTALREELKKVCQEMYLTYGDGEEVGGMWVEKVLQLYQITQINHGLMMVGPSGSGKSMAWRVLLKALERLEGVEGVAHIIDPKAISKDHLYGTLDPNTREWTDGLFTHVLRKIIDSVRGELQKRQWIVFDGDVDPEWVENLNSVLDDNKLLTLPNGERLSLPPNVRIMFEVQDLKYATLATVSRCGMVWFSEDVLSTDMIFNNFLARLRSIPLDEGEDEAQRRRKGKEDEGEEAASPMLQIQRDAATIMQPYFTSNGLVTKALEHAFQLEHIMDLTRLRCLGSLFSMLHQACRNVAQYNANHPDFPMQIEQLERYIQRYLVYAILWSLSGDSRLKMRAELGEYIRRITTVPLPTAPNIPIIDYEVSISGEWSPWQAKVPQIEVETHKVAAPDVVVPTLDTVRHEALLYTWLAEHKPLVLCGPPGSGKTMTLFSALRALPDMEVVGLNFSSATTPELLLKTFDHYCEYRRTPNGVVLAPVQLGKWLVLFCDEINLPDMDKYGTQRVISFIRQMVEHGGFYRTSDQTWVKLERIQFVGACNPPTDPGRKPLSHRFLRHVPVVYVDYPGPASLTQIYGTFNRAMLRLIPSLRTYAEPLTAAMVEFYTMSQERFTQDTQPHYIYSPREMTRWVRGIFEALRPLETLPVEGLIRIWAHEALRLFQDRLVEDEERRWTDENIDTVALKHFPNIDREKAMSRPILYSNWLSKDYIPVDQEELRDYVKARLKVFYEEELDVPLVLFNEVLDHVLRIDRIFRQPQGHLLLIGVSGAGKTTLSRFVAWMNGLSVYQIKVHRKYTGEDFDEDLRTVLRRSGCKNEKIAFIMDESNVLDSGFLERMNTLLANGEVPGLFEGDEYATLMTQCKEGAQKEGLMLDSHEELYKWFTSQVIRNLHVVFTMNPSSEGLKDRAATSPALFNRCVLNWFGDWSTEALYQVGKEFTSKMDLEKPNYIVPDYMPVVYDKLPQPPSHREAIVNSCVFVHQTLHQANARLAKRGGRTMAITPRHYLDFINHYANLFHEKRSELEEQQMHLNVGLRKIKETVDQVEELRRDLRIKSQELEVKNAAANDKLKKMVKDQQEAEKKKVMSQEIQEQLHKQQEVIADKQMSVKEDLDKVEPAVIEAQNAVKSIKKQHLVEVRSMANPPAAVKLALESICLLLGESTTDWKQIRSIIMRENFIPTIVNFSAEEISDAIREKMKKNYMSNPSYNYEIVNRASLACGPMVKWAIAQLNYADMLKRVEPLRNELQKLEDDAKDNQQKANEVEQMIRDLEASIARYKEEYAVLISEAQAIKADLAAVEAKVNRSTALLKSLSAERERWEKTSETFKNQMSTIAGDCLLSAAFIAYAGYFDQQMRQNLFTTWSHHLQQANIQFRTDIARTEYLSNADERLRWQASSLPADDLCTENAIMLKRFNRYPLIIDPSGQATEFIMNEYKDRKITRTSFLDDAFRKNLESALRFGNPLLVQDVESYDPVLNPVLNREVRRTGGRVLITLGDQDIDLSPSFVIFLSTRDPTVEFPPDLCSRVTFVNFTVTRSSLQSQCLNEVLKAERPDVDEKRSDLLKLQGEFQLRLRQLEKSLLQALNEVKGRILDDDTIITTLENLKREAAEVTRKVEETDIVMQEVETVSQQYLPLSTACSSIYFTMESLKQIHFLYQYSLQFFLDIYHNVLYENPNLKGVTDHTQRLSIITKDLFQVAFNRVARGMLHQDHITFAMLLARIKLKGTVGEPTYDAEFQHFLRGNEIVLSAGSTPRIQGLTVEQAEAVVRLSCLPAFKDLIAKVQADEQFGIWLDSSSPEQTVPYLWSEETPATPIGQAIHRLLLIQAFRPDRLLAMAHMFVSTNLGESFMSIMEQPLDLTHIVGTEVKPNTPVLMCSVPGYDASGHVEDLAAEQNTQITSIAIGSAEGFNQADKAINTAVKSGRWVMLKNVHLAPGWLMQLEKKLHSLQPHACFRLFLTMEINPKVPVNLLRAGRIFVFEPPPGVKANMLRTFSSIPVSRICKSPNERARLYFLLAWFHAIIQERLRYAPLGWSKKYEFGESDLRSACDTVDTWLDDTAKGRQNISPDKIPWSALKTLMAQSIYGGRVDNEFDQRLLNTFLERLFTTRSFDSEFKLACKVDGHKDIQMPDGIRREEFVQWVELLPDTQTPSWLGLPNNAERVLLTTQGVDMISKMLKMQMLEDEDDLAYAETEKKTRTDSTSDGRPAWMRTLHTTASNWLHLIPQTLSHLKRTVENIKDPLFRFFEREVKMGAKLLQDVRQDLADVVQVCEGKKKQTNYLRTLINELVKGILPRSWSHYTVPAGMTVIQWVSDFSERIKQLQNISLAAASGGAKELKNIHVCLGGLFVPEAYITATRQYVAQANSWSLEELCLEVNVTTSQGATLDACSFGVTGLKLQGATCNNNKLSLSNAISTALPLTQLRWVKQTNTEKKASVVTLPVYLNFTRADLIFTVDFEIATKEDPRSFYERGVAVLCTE

[6] = biological target: dynein mutant unable to attain the phi conformation (mtDyn) (human), Q14204
human Lis1 = biological target: B1; assay: cell-based or functional assay
Lis1^39–410 = biological target: T1, Lis1^39–410 (human, UniProt P43034 39-410); assay: cell-based or functional assay
T1 sequence (looked up): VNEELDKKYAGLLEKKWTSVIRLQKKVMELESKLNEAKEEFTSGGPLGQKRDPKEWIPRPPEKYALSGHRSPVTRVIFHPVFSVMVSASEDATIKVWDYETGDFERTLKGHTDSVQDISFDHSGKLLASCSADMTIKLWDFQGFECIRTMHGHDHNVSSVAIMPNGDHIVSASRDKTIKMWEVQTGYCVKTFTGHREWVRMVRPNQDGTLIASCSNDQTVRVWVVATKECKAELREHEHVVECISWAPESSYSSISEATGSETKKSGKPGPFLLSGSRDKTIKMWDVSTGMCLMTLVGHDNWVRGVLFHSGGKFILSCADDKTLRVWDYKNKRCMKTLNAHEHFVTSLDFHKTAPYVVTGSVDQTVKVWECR

[7] = biological target: dynein mutant unable to attain the phi conformation (mtDyn) (human) (UniProt Q14204)

pig brain dynactin (from UniProt A0A287B8J2 1-1281) (complex)
percent reduction of Nde1 colocalization to dynein (150 nM dynactin, 25 nM Nde1) [1]: 75%
percent reduction of Nde1 colocalization to dynein (150 nM dynactin, 25 nM Nde1) [2]: 37%
percent of dynein-colocalized Nde1 spots released (WT dynein-GFP (human)): 96%

B1
average bound time [3]: 12 s
average bound time with Nde1 added [3]: 35 s
stoichiometry N [4]: 2
percent of DDR complexes that co-migrate with Lis1 [5]: 70%

B2
stoichiometry N [4]: 2

B3
decrease of the frequency of mtDDR runs with 250 nM Nde1 mutant in the absence of Lis1 [6]: 50%

B4
wtDDR run frequency on addition of 10 nM Nde1 with full-length Lis1 (human Lis1): > 10 fold
wtDDR run frequency on addition of 10 nM Nde1 with 100 nM Lis1^39–410 (Lis1^39–410): 3.2 fold
average bound time [3]: 21 s
average bound time with Lis1 added [3]: 42 s
stoichiometry N [4]: 2
decrease of the frequency of mtDDR runs with 250 nM Nde1 in the absence of Lis1 [7]: 50%

B5
decrease of the frequency of mtDDR runs with 250 nM Nde1 mutant in the absence of Lis1 [6]: 50%

B6
stoichiometry N [4]: 2

B7
stoichiometry N [4]: 2

B8
stoichiometry N [4]: 2

B9
stoichiometry N [4]: 2

B10
stoichiometry N [4]: 2
